# From US20150098946A1 (Genentech, published 2015)
# Target: T1, TAT194 polypeptide as used in the BIAcore analysis (human, UniProt P07949 29-635, limits assumed)
# T1 construct: The construct used for the BIAcore analysis (extracellular domain, tag, fusion, isoform) is not described; also called RET
# Assay: standard BIAcore analysis
row,Binder,Kd [nM]
1,"anti-TAT194 monoclonal antibody R4205 (antibody, V domains shown, Monoclonal antibody from a mouse hybridoma; kappa VL; also called anti-RET murine monoclonal antibody clone 4205) VH: QVQLKESGPGLVKPSQSLSLTCTVTGYSITSDYVWNWIRQFPGNKLEWMGYIHYSGGTSYNPSLKSRISITRDTSKNQFFLHLNSLTTEDTATYYCARGNYDWAFAYWGQGTLVTVSA VL: DVQITQSPSYLAASPGETITINCRASKSISKYLAWYQDKPGKTNKLLISSGSTLQSGIPSRFSGSGSGADFTLTISSLEPEDFAMYYCQQHNEYPWTFGGGTKLEIKR",0.18
2,"anti-TAT194 monoclonal antibody R4206 (antibody, V domains shown, Monoclonal antibody from a mouse hybridoma; kappa VL) VH: DVQLQESGPGLVKPSQSLSLTCTVTGFSITSDYAWNWIRQFPGNKLEWMAYITYSGDTGYNPSLKSRISVTRDTSKNQFFLQLSSVTTEDTATYYCARGNYDWVFAYWGQGTLVTVSA VL: DVQITQSPSYLAASPGETITINCRASKSISKYLAWYQEKPGKTNKLLIYSGSTLQSGIPSRFSGSGSGTDFTLTISSLEPEDFAMYYCQQYIEYPWTFGGGTKLEIKR",0.34
3,"anti-TAT194 monoclonal antibody R4207 (antibody, V domains shown, Monoclonal antibody from a mouse hybridoma; kappa VL) VH: DVQLQESGPGLVKPSQSLSLTCTVTGFSITSDYAWNWIRQFPGNKLEWMAYITYSGDTGYNPSLKSRISVTRDTSKNQFFLQLSSVTTEDTATYYCARGNYDWVFAYWGQGTLVTVSA VL: DVQITQSPSYLAASPGETITINCRASKSISKYLAWYQEKPGKTNKLLIYSGSTLQSGIPSRFSGSGSGTDFTLTISSLEPEDFAMYYCQQYIEYPWTFGGGTKLEIKR",0.54
4,"anti-TAT194 monoclonal antibody R4203 (antibody, V domains shown, Monoclonal antibody from a mouse hybridoma; kappa VL) VH: EVQLQQSGPELVKPGASMKISCKASGYSFTGFTMNWVKQSHGKNLEWIGLINPYNGVTNYNQKFRGKATLTVDESSSTAYMDLLSLTSEDSAVYYCARHYSFAMDYWGQGTSVTVSS VL: DIVLTQSPASLAVSLGQRATISCRASESVDGYGSSFMHWYQQKPGQPPKLLIYRTSNLESGIPARFSGSGSTTDFTLTINPVEADDVATYYCQQNSEDRTFGGGTKLEIKR",0.1
5,"anti-TAT194 monoclonal antibody R4204 (antibody, V domains shown, Monoclonal antibody from a mouse hybridoma; kappa VL) VH: QVQLQQSGAELAKPGTSVKMSCKASGYTFTTYWMHWIKQRPGQGLEWIGYINPSTGYSEYNQKFKDKATLTADRSSSTAYMQLSSLTSEDSTVYYCARWRFYGSTYGMDYWGQGTSVTVSS VL: QIVLTQSPALMSAFPGEKVTLTCSASSSVTYMYWYQQKPRSSPKPWIYLTSKLASGVPSRFSGSGSGTSFSLTITSMEAEDAATYYCQQWTGNPLTFGAGTKLELKR",169
6,"anti-TAT194 monoclonal antibody R4212 (antibody, V domains shown, Monoclonal antibody from a mouse hybridoma; kappa VL) VH: DVQLQESGPGLVAPSQSLSITCTVSGFSLSRYSVHWVRQPPGKGLEWLGMIWLGGSTDYNSALKSRLSISKDISKSQVFLKMNSLQTDDTAMYYCARNLDSRGFAHWGQGTLVTVSA VL: DVLMTQTPLSLPVSLGDQASISCRSSQSIVHSNGNTYLEWYLQKPGQSPKLLIYKVSNRFSGVPDRFSGSGSGTDFTLKISRVEAEDLGVYYCFQGSHVPPTFGGGTKLEIKR",105
7,"anti-TAT194 monoclonal antibody R4209 (antibody, V domains shown, Monoclonal antibody from a mouse hybridoma; kappa VL) VH: EVNLEESGGGLVQPGGSMKLSCVASGFTFSNYWMNWVRQSPEKGLEWVADISLKSNNYGTHYAESVNGRFTISRDDSTSSVYLQMNNLRAEDTGIYYCAVYYYGVKFYYFVLGYWGQGTSVTVSS VL: DIVMTQSHKFMSTSVGDRVSITCKASQDVSTAVAWYQQKPGQSPKLLIYWGSTRHTGVPDRFTGVGSGTDYSLTISSVQAEDLALYYCQQHYNIPWTFGGGTKLEIKR",2.55
8,"anti-TAT194 monoclonal antibody R4208 (antibody, V domains shown, Monoclonal antibody from a mouse hybridoma; kappa VL) VH: QVHLQQSGSELRSPGSSVKLSCKDFDSEVFPIAYMSWVRQKPGHGFEWIGDILPNIGRTIYGEKFEDKATLDADTVSNTAYLELNSLTSEDSAMYYCGRSITRAWFAYWGQGTLVTVSV VL: DIQMTQSPSSLSASLGERVSLTCRASQEISGYLSWFQQKPDGTIKRLIYAASTLDSGVPKRFSGSRSGSDYSLTISSLASEDFADYFCLQYAGNPFTFGSGTKLEIKR",1.25
